# Data as given in publication doi:10.1101/728246 (bioRxiv, 2019).
# Tests used:
# [1] = target: the molecule itself; experiment: negative-stain EM single-particle reconstruction
# SEC = target: the molecule itself; experiment: SEC
Protein,stoichiometry N [1],stoichiometry N (SEC)
Mycobacterium tuberculosis Mfd (transcription-repair coupling factor) (natural protein) MTAPGPACSDTPIAGLVELALSAPTFQQLMQRAGGRPDELTLIAPASARLLVASALARQGPLLVVTATGREADDLAAELRGVFGDAVALLPSWETLPHERLSPGVDTVGTRLMALRRLAHPDDAQLGPPLGVVVTSVRSLLQPMTPQLGMMEPLTLTVGDESPFDGVVARLVELAYTRVDMVGRRGEFAVRGGILDIFAPTAEHPVRVEFWGDEITEMRMFSVADQRSIPEIDIHTLVAFACRELLLSEDVRARAAQLAARHPAAESTVTGSASDMLAKLAEGIAVDGMEAVLPVLWSDGHALLTDQLPDGTPVLVCDPEKVRTRAADLIRTGREFLEASWSVAALGTAENQAPVDVEQLGGSGFVELDQVRAAAARTGHPWWTLSQLSDESAIELDVRAAPSARGHQRDIDEIFAMLRAHIATGGYAALVAPGTGTAHRVVERLSESDTPAGMLDPGQAPKPGVVGVLQGPLRDGVIIPGANLVVITETDLTGSRVSAAEGKRLAAKRRNIVDPLALTAGDLVVHDQHGIGRFVEMVERTVGGARREYLVLEYASAKRGGGAKNTDKLYVPMDSLDQLSRYVGGQAPALSRLGGSDWANTKTKARRAVREIAGELVSLYAKRQASPGHAFSPDTPWQAELEDAFGFTETVDQLTAIEEVKADMEKPIPMDRVICGDVGYGKTEIAVRAAFKAVQDGKQVAVLVPTTLLADQHLQTFGERMSGFPVTIKGLSRFTDAAESRAVIDGLADGSVDIVIGTHRLLQTGVRWKDLGLVVVDEEQRFGVEHKEHIKSLRTHVDVLTMSATPIPRTLEMSLAGIREMSTILTPPEERYPVLTYVGPHDDKQIAAALRRELLRDGQAFYVHNRVSSIDAAAARVRELVPEARVVVAHGQMPEDLLETTVQRFWNREHDILVCTTIVETGLDISNANTLIVERADTFGLSQLHQLRGRVGRSRERGYAYFLYPPQVPLTETAYDRLATIAQNNELGAGMAVALKDLEIRGAGNVLGIEQSGHVAGVGFDLYVRLVGEALETYRDAYRAAADGQTVRTAEEPKDVRIDLPVDAHLPPDYIASDRLRLEGYRRLAAASSDREVAAVVDELTDRYGALPEPARRLAAVARLRLLCRGSGITDVTAASAATVRLSPLTLPDSAQVRLKRMYPGAHYRATTATVQVPIPRAGGLGAPRIRDVELVQMVADLITALAGKPRQHIGITNPSPPGEDGRGRNTTIKERQP,12,6
Mycobacterium smegmatis Mfd (natural protein) MTAPGHTSVQTPIAGLVELALSDPSLQDVIRRAADRPADLALVGPASARVLVAAALAQNGPLLVVAATGREADELTAELRGVFGDSVALFPSWETLPHERLSPGVETVGARLMLLRRLARPDDETLGAPLRVVVTTTRSLLQPMAPDLVDIEPVTLSVGAEMEFEDVVARLVDLSYTRVDMVGKRGEFAVRGGILDVFPPTAEHPVRVEFWGDEISEMRAFAIADQRSIPEVPVQTVVAVPCRELLMTDDVRERAAALAAEHPTTENTVPGTVPDMLAKLAEGIPVDGMEALLPLLHPIEPTTLTRHLPEGAPVLVCDPEKVRTRAADLIKTGREFLEASWSTAAVGGDAPIDLEALGASGFVTFEEAREAAREGGHPWWTLSQLSDESAVELDIRSAPSARGSQHNLEEIFAMLRAHVATGGYAAVVTPGIGTAHRVVEQLGEADTAATILEPGTAPKAGVVGVLKGPLCSGVVLPGANLVIITETDLTGNRVTANEGRKLAAKRRNVVDPLALTAGDLVVHDQHGIGKFVEMTERVVGGARREYLVLEYASSKRGGGTDKLYVPMDSLDQLSRYVGGEAPSLSRLGGSDWANTKTKARRAVREIASELVALYAKRQSAPGHAFGPDTPWQAEMEDAFGFTETIDQLTAIQEVKSDMEKPVPMDRVICGDVGYGKTEIAVRAAFKAVQDGKQVAVLVPTTLLADQHLQTFTNRMAGFPVTVKGLSRFTDPAESRAVIEGLKDGSVDVVIGTHRLLQTGVTWKDLGLIIVDEEQRFGVEHKEHIKSMRTHVDVLTMSATPIPRTLEMSLAGIREMSTILTPPEERYPVLTYVGPHDDKQVAAALRRELLRDGQAFYIHNRVRTIDEAAARVRQLVPEARVVVAHGQMNEETLEKTVEGFWNREYDILVCTTIVETGLDISNANTLIVERADTFGLSQLHQLRGRVGRSRERGYAYFLYPPNKPLTETAYDRLATIAQNNELGAGMAVAMKDLEIRGAGNVLGAEQSGHVAGVGFDLYVRLVGEAVEAYRAAADGKTVATPQEQKDVRIDLPVDAHLPPEYIGSDRLRLEAYRRLAAAADDDAVASVVDELIDRYGPLPEPAQRLVAVARLRLLCREFGITEIGAVSASTVRLSPMVLPDSAQLRLKRMYPGGHYRATTSTVQVPLPRAGEGVGAPRIRDLELVQWVAGLVLVLNGKGQGDVDMSKFSNPAGEAKR,,6
